# Assay results from PMC7559292 (Science (New York, N.Y.), 2020).
# Several values for one entry are separate records, joined by “and”; a condition that tells them apart may be missing. Equal values may be shown once.
# B1: STN1 (subunit of purified recombinant human CST) (natural protein, UniProt Q9H668 1-368, looked up)
# chain: MQPGSSRCEEETPSLLWGLDPVFLAFAKLYIRDILDMKESRQVPGVFLYNGHPIKQVDVLGTVIGVRERDAFYSYGVDDSTGVINCICWKKLNTESVSAAPSAARELSLTSQLKKLQETIEQKTKIEIGDTIRVRGSIRTYREEREIHATTYYKVDDPVWNIQIARMLELPTIYRKVYDQPFHSSALEKEEALSNPGALDLPSLTSLLSEKAKEFLMENRVQSFYQQELEMVESLLSLANQPVIHSASSDQVNFKKDTTSKAIHSIFKNAIQLLQEKGLVFQKDDGFDNLYYVTREDKDLHRKIHRIIQQDCQKPNHMEKGCHFLHILACARLSIRPGLSEAVLQQVLELLEDQSDIVSTMEHYYTAF
# B2: TEN1 (subunit of purified recombinant human CST) (natural protein)
# chain: MLPKPGTYYLPWEVSAGQVPDGSTLRTFGRLCLYDMIQSRVTLMAQHGSDQHQVLVCTKLVEPFHAQVGSLYIVLGELQHQQDRGSVVKARVLTCVEGMNLPLLEQAIREQRLYKQERGGSQ
# B3: human CTC1-STN1-TEN1 (CST) complex, purified recombinant heterotrimer (complex)
# chain 1: AAGRAQVPSSEQAWLEDAQVFIQKTLCPAVKEPNVQLTPLVIDCVKTVWLSQGRNQGSTLPLSYSFVSVQDLKTHQRLPCCSHLSWSSSAYQAWAQEAGPNGNPLPREQLLLLGTLTDLSADLEQECRNGSLYVRDNTGVLSCELIDLDLSWLGHLFLFPRWSYLPPARWNSSGEGHLELWDAPVPVFPLTISPGPVTPIPVLYPESASCLLRLRNKLRGVQRNLAGSLVRLSALVKSKQKAYFILSLGRSHPAVTHVSIIVQVPAQLVWHRALRPGTAYVLTELRVSKIRGQRQHVWMTSQSSRLLLLKPECVQELELELEGPLLEADPKPLPMPSNSEDKKDPESLVRYSRLLSYSGAVTGVLNEPAGLYELDGQLGLCLAYQQFRGLRRVMRPGVCLQLQDVHLLQSVGGGTRRPVLAPCLRGAVLLQSFSRQKPGAHSSRQAYGASLYEQLVWERQLGLPLYLWATKALEELACKLCPHVLRHHQFLQHSSPGSPSLGLQLLAPTLDLLAPPGSPVRNAHNEILEEPHHCPLQKYTRLQTPSSFPTLATLKEEGQRKAWASFDPKALLPLPEASYLPSCQLNRRLAWSWLCLLPSAFCPAQVLLGVLVASSHKGCLQLRDQSGSLPCLLLAKHSQPLSDPRLIGCLVRAERFQLIVERDVRSSFPSWKELSMPGFIQKQQARVYVQFFLADALILPVPRPCLHSATPSTPQTDPTGPEGPHLGQSRLFLLCHKEALMKRNFCVPPGASPEVPKPALSFYVLGSWLGGTQRKEGTGWGLPEPQGNDDNDQKVHLIFFGSSVRWFEFLHPGQVYRLIAPGPATPMLFEKDGSSCISRRPLELAGCASCLTVQDNWTLELESSQDIQDVLDANKSLPESSLTDLLSDNFTDSLVSFSAEILSRTLCEPLVASLWMKLGNTGAMRRCVKLTVALETAECEFPPHLDVYIEDPHLPPSLGLLPGARVHFSQLEKRVSRSHNVYCCFRSSTYVQVLSFPPETTISIPLPHIYLAELLQGGQSPFQATASCHIVSVFSLQLFWVCAYCTSICRQGKCTRLGSTCPTQTAISQAIIRLLVEDGTAEAVVTCRNHHVAAALGLCPREWASLLDFVQVPGRVVLQFAGPGAQLESSARVDEPMTMFLWTLCTSPSVLRPIVLSFELERKPSKIVPLEPPRLQRFQCGELPFLTHVNPRLRLSCLSIRESEYSSSLGILASSC
# chain 2: QPGSSRCEEETPSLLWGLDPVFLAFAKLYIRDILDMKESRQVPGVFLYNGHPIKQVDVLGTVIGVRERDAFYSYGVDDSTGVINCICWKKLNTESVSAAPSAARELSLTSQLKKLQETIEQKTKIEIGDTIRVRGSIRTYREEREIHATTYYKVDDPVWNIQIARMLELPTIYRKVYDQPFHSSALEKEEALSNPGALDLPSLTSLLSEKAKEFLMENRVQSFYQQELEMVESLLSLANQPVIHSASSDQVNFKKDTTSKAIHSIFKNAIQLLQEKGLVFQKDDGFDNLYYVTREDKDLHRKIHRIIQQDCQKPNHMEKGCHFLHILACARLSIRPGLSEAVLQQVLELLEDQSDIVSTMEHYYTAF
# chain 3: LPKPGTYYLPWEVSAGQVPDGSTLRTFGRLCLYDMIQSRVTLMAQHGSDQHQVLVCTKLVEPFHAQVGSLYIVLGELQHQQDRGSVVKARVLTCVEGMNLPLLEQAIREQRLYKQERGGSQ
# B4: CTC1 (subunit of purified recombinant human CST) (natural protein, UniProt Q2NKJ3 1-1217, looked up)
# chain: MAAGRAQVPSSEQAWLEDAQVFIQKTLCPAVKEPNVQLTPLVIDCVKTVWLSQGRNQGSTLPLSYSFVSVQDLKTHQRLPCCSHLSWSSSAYQAWAQEAGPNGNPLPREQLLLLGTLTDLSADLEQECRNGSLYVRDNTGVLSCELIDLDLSWLGHLFLFPRWSYLPPARWNSSGEGHLELWDAPVPVFPLTISPGPVTPIPVLYPESASCLLRLRNKLRGVQRNLAGSLVRLSALVKSKQKAYFILSLGRSHPAVTHVSIIVQVPAQLVWHRALRPGTAYVLTELRVSKIRGQRQHVWMTSQSSRLLLLKPECVQELELELEGPLLEADPKPLPMPSNSEDKKDPESLVRYSRLLSYSGAVTGVLNEPAGLYELDGQLGLCLAYQQFRGLRRVMRPGVCLQLQDVHLLQSVGGGTRRPVLAPCLRGAVLLQSFSRQKPGAHSSRQAYGASLYEQLVWERQLGLPLYLWATKALEELACKLCPHVLRHHQFLQHSSPGSPSLGLQLLAPTLDLLAPPGSPVRNAHNEILEEPHHCPLQKYTRLQTPSSFPTLATLKEEGQRKAWASFDPKALLPLPEASYLPSCQLNRRLAWSWLCLLPSAFCPAQVLLGVLVASSHKGCLQLRDQSGSLPCLLLAKHSQPLSDPRLIGCLVRAERFQLIVERDVRSSFPSWKELSMPGFIQKQQARVYVQFFLADALILPVPRPCLHSATPSTPQTDPTGPEGPHLGQSRLFLLCHKEALMKRNFCVPPGASPEVPKPALSFYVLGSWLGGTQRKEGTGWGLPEPQGNDDNDQKVHLIFFGSSVRWFEFLHPGQVYRLIAPGPATPMLFEKDGSSCISRRPLELAGCASCLTVQDNWTLELESSQDIQDVLDANKSLPESSLTDLLSDNFTDSLVSFSAEILSRTLCEPLVASLWMKLGNTGAMRRCVKLTVALETAECEFPPHLDVYIEDPHLPPSLGLLPGARVHFSQLEKRVSRSHNVYCCFRSSTYVQVLSFPPETTISIPLPHIYLAELLQGGQSPFQATASCHIVSVFSLQLFWVCAYCTSICRQGKCTRLGSTCPTQTAISQAIIRLLVEDGTAEAVVTCRNHHVAAALGLCPREWASLLDFVQVPGRVVLQFAGPGAQLESSARVDEPMTMFLWTLCTSPSVLRPIVLSFELERKPSKIVPLEPPRLQRFQCGELPFLTHVNPRLRLSCLSIRESEYSSSLGILASSC
# What was measured:
# [1] = molecular target: B4; experiment: cryo-EM structure
# [2] = molecular target: B1; experiment: cryo-EM structure
# negative-stain EM = molecular target: the molecule itself; experiment: negative-stain EM
# cryo-EM structure = molecular target: the molecule itself; experiment: cryo-EM structure
binder,measurement,setting,value
B1,stoichiometry N,[1],1
B2,binding result,[1],binds
same,stoichiometry N,[2],1
B3,stoichiometry N,negative-stain EM,4 and 2
B4,binding result,cryo-EM structure,binds
